From patent US20230322950A1 (Hoffmann-La Roche, published 2023)
Where two headings read alike, the source gives them in different places.

Assays:
[1] = molecular target: VH1VL1-CD8ATD-CD137CSD-CD3zSSD fusion; experiment: cell-based or functional assay
[2] = molecular target: VH2VL1-CD8ATD-CD137CSD-CD3zSSD fusion; experiment: cell-based or functional assay
[3] = molecular target: VL1VH3-CD8ATD-CD137CSD-CD3zSSD fusion; experiment: cell-based or functional assay
[4] = molecular target: VH3VL1-CD8ATD-CD137CSD-CD3zSSD fusion; experiment: cell-based or functional assay
[5] = molecular target: T1, VH1VL1-CD8ATD-CD137CSD-CD3zSSD fusion; experiment: Jurkat NFAT luciferase reporter assay with CD20-positive WSUDLCL2 target cells (5:1); no reporter activation, which the filing uses to exclude unspecific binding
T1 construct: Chimeric antigen receptor expressed on Jurkat NFAT reporter cells; also called VH1VL1 P329G-CAR
Procedure: (§1) Binding of the CAR to an immobilized adapter molecule (e.g. a tumor antigen bound adapter molecule) leads to CAR crosslinking resulting in T cell activation and in the expression of luciferase. […] The 384 well plate was centrifuged for 1 min at 300g and RT and incubated at 37° C. and 5% CO₂ in a humidity atmosphere. After 7h incubation 20% of the final volume of ONE-Glo™ Luciferase Assay (E6120, Promega) was added, and plates were centrifuged for 1 min at 350×g. Afterwards, the relative luminescence units (RLU) per s/well were measured immediately using a Tecan microplate reader. Concentration-response curves were fitted and EC₅₀ values were calculated using GraphPadPrism version 7. As p value the New England Journal of Medicine style was used as listed in GraphPadPrism 7. Meaning*=P≤0,033; **=P≤0,002; ***=P≤0.001.

[6] = molecular target: T2, VH2VL1-CD8ATD-CD137CSD-CD3zSSD fusion; experiment: as above
T2 construct: Chimeric antigen receptor expressed on Jurkat NFAT reporter cells; also called VH2VL1 P329G-CAR
Procedure: as §1

[7] = molecular target: T3, VL1VH3-CD8ATD-CD137CSD-CD3zSSD fusion; experiment: as above
T3 construct: Chimeric antigen receptor with the scFv in VL-VH order, expressed on Jurkat NFAT reporter cells; also called VL1VH3 P329G-CAR
Procedure: as §1

[8] = molecular target: T4, VH3VL1-CD8ATD-CD137CSD-CD3zSSD fusion; experiment: as above
T4 construct: also called VH3VL1 P329G-CAR
Procedure: as §1

[9] = molecular target: T1, VH1VL1-CD8ATD-CD137CSD-CD3zSSD fusion; experiment: cell-based or functional assay; remark: listed apart in the source
[10] = molecular target: T2, VH2VL1-CD8ATD-CD137CSD-CD3zSSD fusion; experiment: cell-based or functional assay; remark: listed apart in the source
[11] = molecular target: T3, VL1VH3-CD8ATD-CD137CSD-CD3zSSD fusion; experiment: cell-based or functional assay; remark: listed apart in the source
[12] = molecular target: T4, VH3VL1-CD8ATD-CD137CSD-CD3zSSD fusion; experiment: cell-based or functional assay; remark: listed apart in the source
[13] = molecular target: T1, VH1VL1-CD8ATD-CD137CSD-CD3zSSD fusion; experiment: Jurkat NFAT luciferase reporter assay with CD20-positive WSUDLCL2 target cells (5:1); no reporter activation, which the filing uses to exclude unspecific binding; remark: listed apart in the source
Procedure: as §1

[14] = molecular target: T2, VH2VL1-CD8ATD-CD137CSD-CD3zSSD fusion; experiment: as above; remark: listed apart in the source
Procedure: as §1

[15] = molecular target: T3, VL1VH3-CD8ATD-CD137CSD-CD3zSSD fusion; experiment: as above; remark: listed apart in the source
Procedure: as §1

[16] = molecular target: T4, VH3VL1-CD8ATD-CD137CSD-CD3zSSD fusion; experiment: as above; remark: listed apart in the source
Procedure: as §1

T2 sequence (chain, as listed by the source): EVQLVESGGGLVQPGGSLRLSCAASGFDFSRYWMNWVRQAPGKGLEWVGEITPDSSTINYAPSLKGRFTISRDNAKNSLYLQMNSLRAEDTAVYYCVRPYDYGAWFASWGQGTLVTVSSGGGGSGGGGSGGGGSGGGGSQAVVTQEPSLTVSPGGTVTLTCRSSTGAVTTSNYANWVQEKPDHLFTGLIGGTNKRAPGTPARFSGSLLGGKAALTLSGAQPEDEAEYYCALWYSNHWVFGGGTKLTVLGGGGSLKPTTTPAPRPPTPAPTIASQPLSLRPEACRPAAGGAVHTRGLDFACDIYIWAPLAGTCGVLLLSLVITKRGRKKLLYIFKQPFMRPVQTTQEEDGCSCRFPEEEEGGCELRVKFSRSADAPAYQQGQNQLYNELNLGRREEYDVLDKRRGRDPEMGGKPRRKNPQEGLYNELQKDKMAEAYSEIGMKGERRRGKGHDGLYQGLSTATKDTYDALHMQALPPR
T3 sequence (chain, as listed by the source): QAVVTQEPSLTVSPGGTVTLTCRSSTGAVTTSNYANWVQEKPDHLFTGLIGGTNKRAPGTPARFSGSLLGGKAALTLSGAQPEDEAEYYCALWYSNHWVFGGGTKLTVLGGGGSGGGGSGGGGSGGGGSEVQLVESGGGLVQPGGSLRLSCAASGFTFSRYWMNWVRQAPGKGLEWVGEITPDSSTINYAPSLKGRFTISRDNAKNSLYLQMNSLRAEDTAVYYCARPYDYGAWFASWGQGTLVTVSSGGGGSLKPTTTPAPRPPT
T4 sequence (chain, as listed by the source): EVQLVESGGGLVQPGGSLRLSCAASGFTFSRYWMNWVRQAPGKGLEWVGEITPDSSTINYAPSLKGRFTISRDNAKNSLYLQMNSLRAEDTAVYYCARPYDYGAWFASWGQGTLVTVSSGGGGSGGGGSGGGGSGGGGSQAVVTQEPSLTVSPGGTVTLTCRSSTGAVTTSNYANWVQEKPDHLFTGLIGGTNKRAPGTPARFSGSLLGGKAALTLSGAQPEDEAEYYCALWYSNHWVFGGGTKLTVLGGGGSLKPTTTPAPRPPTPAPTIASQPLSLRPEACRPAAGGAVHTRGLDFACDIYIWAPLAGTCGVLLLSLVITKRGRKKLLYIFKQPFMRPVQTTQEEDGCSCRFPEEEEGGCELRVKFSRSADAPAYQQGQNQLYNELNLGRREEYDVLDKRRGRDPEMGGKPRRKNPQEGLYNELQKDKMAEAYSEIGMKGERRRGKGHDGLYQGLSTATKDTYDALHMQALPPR
T1 sequence (chain, as listed by the source): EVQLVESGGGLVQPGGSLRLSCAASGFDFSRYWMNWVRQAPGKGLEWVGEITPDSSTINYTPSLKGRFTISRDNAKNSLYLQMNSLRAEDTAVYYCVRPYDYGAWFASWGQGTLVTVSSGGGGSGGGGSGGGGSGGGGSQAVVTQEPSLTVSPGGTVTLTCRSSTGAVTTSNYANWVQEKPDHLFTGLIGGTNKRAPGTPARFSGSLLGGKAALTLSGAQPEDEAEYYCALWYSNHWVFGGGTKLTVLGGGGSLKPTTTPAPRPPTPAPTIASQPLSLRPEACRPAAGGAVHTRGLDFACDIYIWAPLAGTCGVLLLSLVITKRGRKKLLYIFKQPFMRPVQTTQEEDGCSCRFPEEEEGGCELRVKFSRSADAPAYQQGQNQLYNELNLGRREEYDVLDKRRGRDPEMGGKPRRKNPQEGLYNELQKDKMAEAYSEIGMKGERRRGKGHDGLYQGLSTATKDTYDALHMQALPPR

B1: anti-CD20 (GA101) wild type IgG1 (antibody)
heavy: not shown
light: DIVMTQTPLSLPVTPGEPASISCRSSKSLLHSNGITYLYWYLQKPGQSPQLLIYQMSNLVSGVPDRFSGSGSGTDFTLKISRVEAEDVGVYYCAQNLELPYTFGGGTKVEIKRTVAAPSVFIFPPSDEQLKSGTASVVCLLNNFYPREAKVQWKVDNALQSGNSQESVTEQDSKDSTYSLSSTLTLSKADYEKHKVYACEVTHQGLSSPVTKSFNRGEC
notes: also called GA101 Fc wildtyp
EC50 printed in the drawn table (row 'VH1 x VL1') for the Jurkat NFAT reporter assay with WSUDLCL2 cells; it is a fit of a flat curve at background and no activation is seen [1]: ~2.19 pM | EC50 printed in the drawn table (row 'VH2 x VL1') for the Jurkat NFAT reporter assay with WSUDLCL2 cells; it is a fit of a flat curve at background and no activation is seen [2]: 0.000119 pM | EC50 printed in the drawn table (row 'VL1 x VH 3') for the Jurkat NFAT reporter assay with WSUDLCL2 cells; it is a fit of a flat curve at background and no activation is seen [3]: ~78.3 pM | EC50 printed in the drawn table (row 'VH3 x VL1') for the Jurkat NFAT reporter assay with WSUDLCL2 cells; it is a fit of a flat curve at background and no activation is seen [4]: ~85 pM | binding result [5]: no binding (tested: 67 nM) | binding result [6]: no binding (tested: 67 nM) | binding result [7]: no binding (tested: 67 nM) | binding result [8]: no binding (tested: 67 nM)

B2: anti-CD20 (GA101) LALA IgG1 (antibody)
heavy: not shown
light: B1 light
EC50 printed in the drawn table (row 'VH1 x VL1') for the Jurkat NFAT reporter assay with WSUDLCL2 cells; it is a fit of a flat curve at background and no activation is seen [9]: ~0.0485 pM | EC50 printed in the drawn table (row 'VH2 x VL1') for the Jurkat NFAT reporter assay with WSUDLCL2 cells; it is a fit of a flat curve at background and no activation is seen [10]: ~0 pM | EC50 printed in the drawn table (row 'VL1 x VH 3') for the Jurkat NFAT reporter assay with WSUDLCL2 cells; it is a fit of a flat curve at background and no activation is seen [11]: ~0.000234 pM | EC50 printed in the drawn table (row 'VH3 x VL1') for the Jurkat NFAT reporter assay with WSUDLCL2 cells; it is a fit of a flat curve at background and no activation is seen [12]: ~1.61e+07 mM | binding result [13]: no binding (tested: 67 nM) | binding result [14]: no binding (tested: 67 nM) | binding result [15]: no binding (tested: 67 nM) | binding result [16]: no binding (tested: 67 nM)
